# From article doi:10.1101/2020.09.29.317933 (bioRxiv, 2020)
# T1: His-tagged lamin A/C 1-300 fragment, wild type (human, UniProt P02545 1-300)
# T1 sequence (looked up): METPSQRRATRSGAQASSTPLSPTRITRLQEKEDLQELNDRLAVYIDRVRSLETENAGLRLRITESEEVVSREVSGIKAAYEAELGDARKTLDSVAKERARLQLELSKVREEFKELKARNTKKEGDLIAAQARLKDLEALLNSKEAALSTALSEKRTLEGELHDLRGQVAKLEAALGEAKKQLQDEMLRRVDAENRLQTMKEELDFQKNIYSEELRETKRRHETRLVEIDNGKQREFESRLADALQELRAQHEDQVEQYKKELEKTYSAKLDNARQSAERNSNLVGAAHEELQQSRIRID
# T2: His-tagged lamin A/C 1-300 fragment, I63S (human, UniProt P02545 1-300, I63S)
# T2 sequence (looked up): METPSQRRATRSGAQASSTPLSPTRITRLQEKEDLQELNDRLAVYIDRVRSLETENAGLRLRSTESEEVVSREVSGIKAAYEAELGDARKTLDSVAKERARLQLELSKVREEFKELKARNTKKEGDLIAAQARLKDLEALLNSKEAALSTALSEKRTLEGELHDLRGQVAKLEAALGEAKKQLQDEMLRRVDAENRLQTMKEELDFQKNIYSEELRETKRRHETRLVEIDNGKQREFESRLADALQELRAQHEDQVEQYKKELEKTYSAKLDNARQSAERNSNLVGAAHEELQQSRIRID
# T3: His-tagged lamin A/C 1-300 fragment, L59R (human, UniProt P02545 1-300, L59R)
# T3 sequence (looked up): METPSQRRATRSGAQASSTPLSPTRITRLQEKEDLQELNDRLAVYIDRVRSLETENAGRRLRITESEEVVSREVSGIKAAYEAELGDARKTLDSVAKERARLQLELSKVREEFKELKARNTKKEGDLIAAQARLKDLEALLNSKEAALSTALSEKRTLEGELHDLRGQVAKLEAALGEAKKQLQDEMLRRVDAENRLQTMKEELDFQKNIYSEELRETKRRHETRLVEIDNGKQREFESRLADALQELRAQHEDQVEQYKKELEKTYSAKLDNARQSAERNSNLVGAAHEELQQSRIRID
# T4: His-tagged lamin A/C 1-300 fragment, L35V (human, UniProt P02545 1-300, L35V)
# T4 sequence (looked up): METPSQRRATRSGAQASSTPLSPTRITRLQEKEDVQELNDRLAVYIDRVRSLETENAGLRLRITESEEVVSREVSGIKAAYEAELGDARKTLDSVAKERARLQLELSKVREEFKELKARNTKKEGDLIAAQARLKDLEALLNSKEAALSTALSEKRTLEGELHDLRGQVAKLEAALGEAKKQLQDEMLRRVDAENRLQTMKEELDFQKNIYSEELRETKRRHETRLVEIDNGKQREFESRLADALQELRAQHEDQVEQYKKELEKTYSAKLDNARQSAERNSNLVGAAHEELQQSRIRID
# T5: His-tagged lamin A/C 1-300 fragment, Y45C (human), P02545
# T5 chain: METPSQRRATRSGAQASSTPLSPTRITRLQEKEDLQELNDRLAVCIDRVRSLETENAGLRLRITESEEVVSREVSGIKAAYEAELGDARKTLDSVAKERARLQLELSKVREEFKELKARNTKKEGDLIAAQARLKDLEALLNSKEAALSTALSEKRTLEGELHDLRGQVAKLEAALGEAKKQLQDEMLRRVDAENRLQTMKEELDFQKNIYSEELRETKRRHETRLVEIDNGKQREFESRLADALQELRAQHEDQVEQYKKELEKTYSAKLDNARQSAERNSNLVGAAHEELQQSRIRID
# Tests used:
# [1] = target: T1, His-tagged lamin A/C 1-300 fragment, …; assay: pull-down
# [2] = target: T2, His-tagged lamin A/C 1-300 fragment, …; assay: ITC
# [3] = target: T3, His-tagged lamin A/C 1-300 fragment, …; assay: ITC
# [4] = target: T4, His-tagged lamin A/C 1-300 fragment, …; assay: ITC
# [5] = target: T5, His-tagged lamin A/C 1-300 fragment, …; assay: ITC; settings: remark: other sources report otherwise
binder,measurement,setting,value
"lamin A/C 250-400 fragment (C-terminal part of coil 2), wild type, tag-free (domain or fragment, human, UniProt P02545 250-400, looked up) AQHEDQVEQYKKELEKTYSAKLDNARQSAERNSNLVGAAHEELQQSRIRIDSLSAQLSQLQKQLAAKEAKLRDLEDSLARERDTSRRLLAEKEREMAEMRARMQQQLDEYQELLDIKLALDMEIHAYRKLLEGEEERLRLSPSPTSQRSRG",binding result,[1],binds
same,fold increase of the eA22 interaction against wild type (from KD),[2],~2 fold
same,fold increase of the eA22 interaction against wild type (from KD),[3],~56 fold
same,fold decrease of the eA22 interaction against wild type (from KD),[4],~2 fold
same,fold decrease of the eA22 interaction against wild type (from KD),[5],5 fold
